Assay results from patent publication US20230331827A1, “POTASSIUM CHANNEL INHIBITORS” (priority 2017, published 2023).

Key:
huASIC1a = molecular target: T1, huASIC1a (Homo sapiens, UniProt P78348); test: QPatch electrophysiology, HEK293 cells stably expressing huASIC1a; format: cell-based; conditions: ASIC1a current at pH 6.0 after 15-20 minutes KnotBody pre-incubation, 2.3-6.6 µM
T1 construct: host or cells: HEK293
T1 sequence (P78348 1-528): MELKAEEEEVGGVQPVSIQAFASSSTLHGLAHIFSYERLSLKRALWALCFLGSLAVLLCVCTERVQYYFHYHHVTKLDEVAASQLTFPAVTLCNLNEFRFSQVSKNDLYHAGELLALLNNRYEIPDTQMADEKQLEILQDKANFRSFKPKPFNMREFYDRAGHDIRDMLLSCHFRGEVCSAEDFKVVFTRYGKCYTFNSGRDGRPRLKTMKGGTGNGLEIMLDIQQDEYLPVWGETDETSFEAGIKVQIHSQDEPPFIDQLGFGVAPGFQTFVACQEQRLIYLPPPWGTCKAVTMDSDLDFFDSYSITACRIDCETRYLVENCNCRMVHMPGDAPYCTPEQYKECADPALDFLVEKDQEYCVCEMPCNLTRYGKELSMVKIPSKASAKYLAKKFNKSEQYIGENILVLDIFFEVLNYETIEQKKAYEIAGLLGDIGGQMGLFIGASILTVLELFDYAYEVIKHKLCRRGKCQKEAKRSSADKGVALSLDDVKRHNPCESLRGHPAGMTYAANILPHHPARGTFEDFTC
Description: Knottin Kv 1.3 and ASIC1a blockers expressed in the KnotBody format (see examples 6 and 7) were tested for their ability to inhibit the function of the ion channel targets. The effect of these KnotBodies on cells expressing the human Kv 1.3 (huKv1.3) or human ASIC1a channels was assessed using QPatch automated whole-cell patch-clamp electrophysiology (Sophion).
To functionally assess the ASIC1a KnotBodies, HEK293 cells stably expressing huASIC1a (Sophion) were analysed using a QPatch electrophysiology assay in the presence or absence of the KnotBody fusions (using KB_A12 as a recipient and replacing the original EETI-II donor as shown in Table 8). The “parental” KB_A12 with the EETI-II donor was used as a negative control. Internal and external physiological solutions were freshly prepared prior to the assay. The extracellular solution contained 145 mM NaCl, 4 mM KCl, 2 mM CaCl2, 1 mM MgCl2, 10 mM HEPES and 10 mM glucose; the pH was adjusted to 7.4 with NaOH (for control, resting-state pH) or 6.0 with MES (for acidic, activating-state pH); the osmolarity was ~ 305 mOsm/L. The intracellular solution contained: CsF (140 mM), HEPES (10 mM), NaCl (10 mM) and EGTA/CsOH (1 mM/5 mM); the pH was adjusted to 7.3 with CsOH; osmolarity was ~ 320 mOsm/L.
Throughout ASIC 1a recordings the recording cell membrane voltage was clamped at -60 mV. ASIC1a baseline control currents were elicited by applying external solution at activating pH 6.0 for 3000 ms. This activating pH application was repeated three further times, giving four baseline control ASIC1a currents. The recording cells were then pre-incubated with KnotBody diluted in external solution at pH 7.4 for 15-20 minutes. Following this KnotBody pre-incubation the same concentration of KnotBody in external solution at activating pH 6.0 was applied to the cell recording.
At the end of each KnotBody incubation and subsequent ASIC1a current activation, a full blocking concentration (300 nM) of the ASIC1a knottin inhibitor PcTx1 (positive control) was perfused onto the cell recording and a final activating pH 6.0 external solution was applied. The percentage remaining signal between activating pH 6.0 baseline (i.e. pre-KnotBody) and post-KnotBody incubation was determined.

LOX-1 = LOX-1 (Homo sapiens, UniProt P78380); test: Phage TRF binding assay on LOX-1; conditions: phage displayed, FIG. 19
Description: In order to test the functionality of these adhiron-antibody fusions, monoclonal phage prepared from each clone was assessed for binding to LOX-1 in a TRF binding assay. In this assay, LOX-1 (immobilised directly on Maxisorp™ plates) binding of phage displaying adhiron-antibody fusion was detected using a mouse anti-M13 antibody (GE Healthcare) followed by europium conjugated anti-mouse antibody (Perkin Elmer). Parent KnotBodies KB_A07 and KB_A12 (EETI-II fusions) were included as controls. Proteins cMET-FC, GAS6-CD4, FGFR4-CD4, UPA and B-gal were used to examine non-specific binding.

B1: KB_A07: EETI-II knottin fused into VL CDR2, D1A12 VH; parental KnotBody, isotype control (antibody, V domains shown)
VH: EVQLVESGGGLVRPGGSLRLSCAASGFTFSSYAMSWVRQAPGKGLEWVSAISGSGGSTYYADSVKGRFTISRDNTKNSLYLQMTSLRADDTAFYYCVKDFGPGYGTGWFDYWGPGTLVTVSS
VL: DIQMTQSPSSLSASVGDRVTITCRASQSISSYLNWYQQKPGKAPKLLIYAAGVCPRILMRCKQDSDCLAGCVCGPNGFCGSRSGVPSRFSGSGSGTDFTLTISSLQPEDFATYYCQQGASPPYTFGQGTKVEIKRT
% current remaining (huASIC1a): 70.9%
binding to LOX-1 (LOX-1): no detectable binding to the LOX-1

B2: KB_A12: EETI-II knottin fused into VL CDR2, D1A12 VH; parental KnotBody, isotype control (antibody, V domains shown)
VH: B1 VH
VL: QSVLTQPPSVSEAPRQRVTITCSGSSSNIGNNAVNWYQQLPGKAPKLLIYAAGRCPRILMRCKQDSDCLAGCVCGPNGFCGANSGVSDRFSAAKSGTSASLAINGLRSEDEADYYCAAWDDSLNGYVFGTGTKLTVLGQP
% current remaining (huASIC1a): 67.4%
binding to LOX-1 (LOX-1): no detectable binding to the LOX-1
